# Experimental data: the DeepSol protein solubility set
# Test: soluble on expression in E. coli; label from the status in PepcDB or PDB records
row,Sequence,soluble on expression in E. coli
1,MGSDKIHHHHHHMYGIVIVEDEELERQALRTILTENIDGIRILGEARTGTEAVALIDSCEIDLMLVDINIPNLNGLEVIRHLRDRHADTKVIITTAYDYFETTRTAIQLKVDEYLLKPIRTQALVTTIQSCIGQLGAGRQCRELVGRIADLVEQDGYQEGVTLVRRHIEWICTQRGHVPRDLILDFAGALVALARDKGLRLPDALTQQIGQLRTMPLDAQTGYQALGTFLGVVDLLFDVTGERFGYSSNTVKKVLNYIERNLTKRITLEDAAEYANISPSYLSRMFKKTLNVNFISYLTTRRIELAKETLIGTERPITAISQELSYSDVNYFCKSFKKEVGVSPTEYRRQSRLAQGAPPPREAALATG,not soluble
2,MSFLNNDFGSPPATSSPPTTMPKLPTIQDMLNNIGASTVNLMQPNPYLMQNQIPLPVPNLPLNPFLHLNPAISQEIIQQFIAMSFNTPNVLASIANMGDDEGPSCNPKMRRGDLLKSVSMDSTEDPPSITLDNNGDMIVPNNDKEGWCRNKKYIEQTENGYMCTVCRKVYGRYNSVSYHVTIYHRNPPIKCNVPNCQFTTREARYIHFHKNYRHGIPLPESIDQGSRKCPHCRHVSKSPAMLEKHIRRHQIKDGLSNINEAIRERTSTICDEAMEIEPAETEVDPIETKPRSCTL,not soluble
3,MYTIQANPSGTRSIEVSSENLKTIEKYALFRHLIDSTGIVDEPVLDKLKLNIRSLIASQEEDSKELLDLCIDVIYHNNMKAFGLQQLIKLYLTWLSTQDAEEEEE,soluble
4,MSSPPPARSGFYRQEVTKTAWEVRAVYRDLQPVGSGAYGAVCSAVDGRTGAKVAIKKLYRPFQSELFAKRAYRELRLLKHMRHENVIGLLDVFTPDETLDDFTDFYLVMPFMGTDLGKLMKHEKLGEDRIQFLVYQMLKGLRYIHAAGIIHRDLKPGNLAVNEDCELKILDFGLARQADSEMTGYVVTRWYRAPEVILNWMRYTQTVDIWSVGCIMAEMITGKTLFKGSDHLDQLKEIMKVTGTPPAEFVQRLQSDEAKNYMKGLPELEKKDFASILTNASPLAVNLLEKMLVLDAEQRVTAGEALAHPYFESLHDTEDEPQVQKYDDSFDDVDRTLDEWKRVTYKEVLSFKPPRQLGARVSKETPL,soluble
5,MGSDKIHHHHHHMTSKLAAVSHIEKIALGLRDQAHAVIKNILMMSDIPTQELQHAMKQLSHQGRVALHFHPDRIDNRGLTVVQGLLRDGIYKSQFETHISNGQLSPELGGPRDHWENQLFGNSYSGIKSRPKYGALDLGLCPLGPAPRFGSCYFLTHSQVLSRCTFSYMDSYRLPKEKGTLSCFDAILAALLSESFERCYALGRQPFKPRDIMAHMACEAKSSVAARFELPGLGNLDHYIEAQIHGDVSLADDIGYLVADPSFKGTETEEYFNQLCSDYQINLHWHNGLTLACDKVPTDFRGAAMPVLAKQIAIDEVIDAKTVGAEAARLQKQPSSWSERGSQAKKTQELKLLWHVLVRFGKPREDNFDNH,not soluble
6,MSLDVLGHVFEYFLGEFALAEGKQGGQFYTPKCVVELLVTMLEPYKGRVFDPCCGSGGMFVQSEEFVKSHQGRLDDISIYGQESNQTTYKLAKMNLAIRKIESSQVIWNNEGSFLNDAHKDLKADFIIANPPFNDSDWSGELLENDGRWKYGVPPASNANYAWIQHFLYHLSPNGGVAGFVLAKGALTSNTTNEAAIRKALIEDDLIDCIVNLPAKLFLNTGIPASLWFIRRQKLPKTVKKTLFIDARDLGTRINRRNKTLNKDDINQIANIYKAWKNGTDYEDIKGFCKSVSIDEIRELSYVLTPGRYVGLADSDDEFDFDTRFNELLAKLKSQIKTEQELSEIILKNLEKIKEGHHHHHH,not soluble
7,MIFDGHSDTWADVTIRRLNGEKDVFRRIHLDNFKRANIEGAIFVIWIDPPYDKEPEKRVKQIISSIKDEIEDMKDVVNIVKKYSDIDKGISENKINILIGLEGLSHIGRNIDLLDYFYKEVGARHASLTWNEQNELATGCLGDENRGLTEIGKKAVNKMEKLGMIVDVSHLNEKSFWDLMSVASKPVIASHSNARSLCDAKRNLTDNQLKEISNTGGLVGINSFRGFTNSNPKKQDLIHLVDHIDYMVNLIGIEHVSFGFDFSDYLGKETIGSFTGNASVPSVDGLESTHTAQNIVVELENRGYKKKDIELISSGNFYRLFKDILK,not soluble
8,MQDRSCYKLTQEGERLFRMQKYEKGIDLLKKALEVGTDDFSLLSAIYCQLGNAHTMLKDYEQALKFHTYDILVERLLGNKEGEAKSCANLGNIFKMKGAYNDALTFTFKQLDFAEELGDRVLKSRAYYNIATIYVERGRCTKLEAAEEKNDAKNAEATSDFENAAKYFMLNLEMSEKSEDALTMGRCYGSLGNTYYCLGDYDQSIHFHKLRLELSQQYGDRASMRRAHANIANCHALKSNMPLAIQHYKLAYNLAIEIGNKTEEAQMAYSLANALYIGKEVQKAITYFQRHLKIARSLEDISGQLRSYYSLALSFNNLCERRKALYFLVLAKRSSLQVNDTSALTDIDNLLNEILEAGQEDVLVDDIELIIDESADPAPADIEHRELRLTYFQKRNIHDKPVNTPEDPLAEDRYEKEEFFDMLAKLQSKRMNDQRVDASVLSSNLDFRVRQVDTEPDNSSTDGSEVLIDLLLNAQGRRMDDQRAPFLPGLNPNGQIILRRLNTDPGNEELDEHLVEWLMRVQGERLDEQRSELPPIKPEGQEEVDKKKEEDVTAIVMRMQAGRLEDQRAHLPNIPTSKN,not soluble
9,MSLMPDKKGYIIDIDGVIGKSVTPIPEGVEGVKKLKELGKKIIFVSNNSTRSRRILLERLRSFGLEVGEDEILVATYATARFIAREKPNAKVFTTGEEGLIEELRLAGLEIVDYDEAEYLVVGSNRKINFELMTKALRACLRGIRYIATNPDRIFPAEDGPIPGTGMIIGALYWMTGREPDVVVGKPSEVIMREALDILGLDAKDVAVVGDQIDVDVAAGKAIGAETVLVLTGVTTRENLDQMIERHGLKPDYVFNSLKDMVEALEGEGHHHHHH,soluble
10,MLRTPNNRHKIDSILVLGTAQYDGVPSRQFAARLRHAAKLWRLHEIQHVYTVGGKLPGDRFTEAEVAREYLIKEGVDPDLIFVSAVGNDTVSSYEALDPEKLGRVLIVTDPNHSYRAVRIARRMGFDAKPSPTTYSPAKFPSIVYFLTLSHEWGGVVVQDVSRLLGERVADKVEASLRAIQGLLRPSRRARHEQLRRLKKLEHHHHHH,soluble
11,MASGIRCFRLLHPAFRSYHAALTRPVSEVSMKTVSGRQHGHRQYSAYPAVPVRHFATKKAKAKGKGQPQARVTVNRALVEDIISLEEVDEDMKSVVEALKDNFNKTLNIRTAPGSLDHITVVTADGKVALNQIGQISMKSPQVILVNMASFPECTAAAIKAIRESGMNLNPEVEGTLIRVPIPKVTREHREMLVKLAKQNTNKAKENLRKVRTNAMNKLKKSKDKTSEDTIRLIEKQISQMADDTVAELDQHLAAKTKELLG,soluble
12,MRGSHHHHHHGMASMTGGQQMGRDLYDDDDKDHPFTMFYEKIQTPAYILEEDKLRKNCELLASVGEKSGAKVLLALKGFAFSGAMKIVGEYLKGCTCSGLWEAKFAKEYMDKEIHTYSPAFKEDEIGEIASLSHHIVFNSLAQFHKFQSKTQKNSLGLRCNVEFSLAPKELYNPCGRYSRLGIRAKDFENVDLNAIEGLHFHALCEESADALEAVLKVFEEKFGKWIGQMKWVNFGGGHHITKKGYDVEKLIALCKNFSDKYGVQVYLEPGEAVGWQTGNLVASVVDIIENEKQIAILDTSSEAHMPDTIIMPYTSEVLNARILATRENEKISDLKENEFAYLLTGNTCLAGDVMGEYAFDKKLKIGDKIVFLDQIHYTIVKNTTFNGIRLPNLMLLDHKNELQMIREFSYKDYSLRN,soluble
13,MHLYSSDFPLMMDEKELYEKWMRTVEMLKAEGIIRSKEVERAFLKYPRYLSVEDKYKKYAHIDEPLPIPAGQTVSAPHMVAIMLEIANLKPGMNILEVGTGSGWNAALISEIVKTDVYTIERIPELVEFAKRNLERAGVKNVHVILGDGSKGFPPKAPYDVIIVTAGAPKIPEPLIEQLKIGGKLIIPVGSYHLWQELLEVRKTKDGIKIKNHGGVAFVPLIGEYGWKEHHHHHH,soluble
14,MEQLNICIDIDGTITDAYYWIDLCNSYFKTSITEKDATQYYIHKILNVPLEEYNEFYEKYKYKLHSEQKLRKDVKSVITKLSQNNNIFFVTARERDLTILTYSYLRKKEIPYDSLFILGTHHKVPTARQLNCDLFIEDNYDNALELSKAGFKVLLIDTYYNRKPLNQNIIRFYNWDEVYGIVDRLFEKSEAI,not soluble
15,ITKAINYMAKRRIGALLTIERDTGMGDYIETGIPLNAKVSSELLINIFIPNTPLHDGAVIMKNNEIAAAACYLPLSESPFISKELGTRHRAAVGISEVTDSLTIIVSEETGGVSVAKNGD,not soluble
16,MAIPGNMWIYDDGGALIKGGCDVADREFSIEFKGFHHNLSIPTDHATGKPTGTRQHSPMIIVKEFDYSSPYLYKAVATGQNLKSAEIKWYKISDAGQEVEYFNMLLEGVRIVSISPTMASPEDKNNNHLESVELRYEKITWKHCDGNIIFTDAWNERQTA,not soluble
17,MGSDKIHHHHHHVKELHESSTIISFKEHTDVNADSILELSFLKLQTKDSCLVKNVGLIRELNNCLLILDSANSNLYVFNKSGAFVNQIGQKGSGPGEYILLSSFFVDNNKNYIAAIDIAQDKVLYYNATDFSFLYERRLPFSTSCCLQLEDGNLLWNSREYTDSKLSDFYFVVTDSLFDIIDYKMNKEFKSGYTTGPSQMIYKVGTNVFAYTPFDLTIYRVGTSEIVPAHSFSFEGTDIPSLDFLNKTSNQGNSNYLYDLIQSDYISYYCVEETERDLFVCYMKNKEKYIGLYDKNTDRTYNYPIKIFQDQLKVGELNYFSIGSVDDYHVAPLDVLSLKDMAGNGYVFDDKLSELLTISNEEDNSILLFVRIKK,not soluble
18,MRWNLDPTHTSVEFAVRHMMIATVRGTMGLKEGYVETDETGKPIRVEARLDAASIHTGVADRDNHLRSPDFLDVANHPEIVFRSEKITPLGEGRYRVEGEVTIRGVTRPLAFEVETHGPAKDPWGNERIAAHFEGKLNRKDFGLTWNMPLETGGLLVGEEVRFSVDTQAVKAKEAVAQ,soluble
19,MSLAHRTVAMVLFNDVLLLDVTGPMDAFAIANRFLPAARQYRLLTLAEGQAVVRGSCGLKVVADRRLEDLPEAVDLLLVPGGPGAYDIALPGIERWLPKAVRQAKRFGAICTGVFLLGRAGLLNGYRCTTHWNYVERLAQAFPEAKVETEQIYVMDRCLITSGGITAGIDLALAVVAEDHGKALALEVAKVLLVARHRQGGQTPYGPLLAAVPRDDSPIARVQAYIVDHIEQAFTVQKMAELVAMSGRNFARTFLREVGITPLQYLQNARIDRTRKLLECGDLPMKVVAAQCGFGSDRHMRKVFFERIGMTPAQYRAQFGGEGHHHHHH,soluble
20,MCTRVVYSGSNGMVATGRSMDWKTDMHSNLWVFPRGMKRNGETGENSLEWTSRYGSVVTSAFEIASTDGMNEKGLVANLLWLPETEYPVRDKNKPGLAITAWVQYMLDNFATVEEAVAYIDEDTFQVVSDMMPDGSRLATLHLSISDATGDCAIFEYIGGKLTVYHSKEYKVMTNSPTYNKQLALSEYWKSIGGLSFLPGTNRAADRFARASFYINALPETDDERIAVASVFSVVRNASVPYGISTPESPEISTTQWRTVSESKNLRYFFESSLTPNTFWVNLKDFDLSEGAPVFKLSIANGEMYHGNTAKNFKTALPFKFMGVKG,not soluble
21,MGSDKIHHHHHHMTASLTALRAFDAAARNGSFRAAAADLNVTPTAISHHIRGLEDQLGVKLFRREGRDVALTDDGRRLADATNQAFGLLDNAVQSLRRSARKAVRVSAGPIFTARWLMPRISDFWEAHREIELEVVPAIHPGARDRENVDIVIRWDRIADMGRDAVKLLELSPVAIASEDFVAKRGPIDHPKDLLILPLLHQRNHWGWLDWFEAMGVSLADPLYGPIFEDANVLLRGAAEGQGAIIGWLPLIDQDLAEKRVVRVFDERIAPTHGYFVDVQHNSRARVEVRAVEDWLISQS,not soluble
